The labels stand for the following.
B1: Ras-related protein Rab-6B (Homo sapiens), Q9NRW1 (parent)
chain: MSAGGDFGNPLRKFKLVFLGEQSVGKTSLITRFMYDSFDNTYQATIGIDFLSKTMYLEDRTVRLQLWDTAGQERFRSLIPSYIRDSTVAVVVYDITNLNSFQQTSKWIDDVRTERGSDVIIMLVGNKTDLADKRQITIEEGEQRAKELSVMFIETSAKTGYNVKQLFRRVASALPGMENVQEKSKEGMIDIKLDKPQEPPASEGGCSC
partner: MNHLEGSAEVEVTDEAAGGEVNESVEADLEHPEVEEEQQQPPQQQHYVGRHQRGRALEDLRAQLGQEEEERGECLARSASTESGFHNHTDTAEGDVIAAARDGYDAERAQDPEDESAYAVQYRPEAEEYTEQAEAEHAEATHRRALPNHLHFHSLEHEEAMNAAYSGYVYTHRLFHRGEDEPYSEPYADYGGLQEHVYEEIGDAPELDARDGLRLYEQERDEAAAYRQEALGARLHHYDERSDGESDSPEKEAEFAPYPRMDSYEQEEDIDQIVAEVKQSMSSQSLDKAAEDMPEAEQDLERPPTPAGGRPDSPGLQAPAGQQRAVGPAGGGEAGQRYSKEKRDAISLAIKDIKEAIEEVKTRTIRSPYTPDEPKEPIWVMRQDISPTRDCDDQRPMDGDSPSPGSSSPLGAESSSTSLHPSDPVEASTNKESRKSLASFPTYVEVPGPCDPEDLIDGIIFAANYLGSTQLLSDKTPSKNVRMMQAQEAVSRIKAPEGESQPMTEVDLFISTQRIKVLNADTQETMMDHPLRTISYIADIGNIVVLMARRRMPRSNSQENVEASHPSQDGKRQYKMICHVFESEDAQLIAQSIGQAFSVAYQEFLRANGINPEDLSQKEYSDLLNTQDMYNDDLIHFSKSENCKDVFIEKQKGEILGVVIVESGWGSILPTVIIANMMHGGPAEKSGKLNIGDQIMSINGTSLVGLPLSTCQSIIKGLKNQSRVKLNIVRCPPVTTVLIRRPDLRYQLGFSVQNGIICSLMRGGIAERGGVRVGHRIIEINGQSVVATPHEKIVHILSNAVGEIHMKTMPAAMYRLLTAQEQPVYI
B2: Ras-related protein Rab-6A (Homo sapiens), P20340-1 (parent)
chain: MSTGGDFGNPLRKFKLVFLGEQSVGKTSLITRFMYDSFDNTYQATIGIDFLSKTMYLEDRTVRLQLWDTAGQERFRSLIPSYIRDSTVAVVVYDITNVNSFQQTTKWIDDVRTERGSDVIIMLVGNKTDLADKRQVSIEEGERKAKELNVMFIETSAKAGYNVKQLFRRVAAALPGMESTQDRSREDMIDIKLEKPQEQPVSEGGCSC
partner: B1 partner
B3: Ras-related protein Rab-6A (Homo sapiens), P20340-1 (parent)
chain: B2 chain
partner: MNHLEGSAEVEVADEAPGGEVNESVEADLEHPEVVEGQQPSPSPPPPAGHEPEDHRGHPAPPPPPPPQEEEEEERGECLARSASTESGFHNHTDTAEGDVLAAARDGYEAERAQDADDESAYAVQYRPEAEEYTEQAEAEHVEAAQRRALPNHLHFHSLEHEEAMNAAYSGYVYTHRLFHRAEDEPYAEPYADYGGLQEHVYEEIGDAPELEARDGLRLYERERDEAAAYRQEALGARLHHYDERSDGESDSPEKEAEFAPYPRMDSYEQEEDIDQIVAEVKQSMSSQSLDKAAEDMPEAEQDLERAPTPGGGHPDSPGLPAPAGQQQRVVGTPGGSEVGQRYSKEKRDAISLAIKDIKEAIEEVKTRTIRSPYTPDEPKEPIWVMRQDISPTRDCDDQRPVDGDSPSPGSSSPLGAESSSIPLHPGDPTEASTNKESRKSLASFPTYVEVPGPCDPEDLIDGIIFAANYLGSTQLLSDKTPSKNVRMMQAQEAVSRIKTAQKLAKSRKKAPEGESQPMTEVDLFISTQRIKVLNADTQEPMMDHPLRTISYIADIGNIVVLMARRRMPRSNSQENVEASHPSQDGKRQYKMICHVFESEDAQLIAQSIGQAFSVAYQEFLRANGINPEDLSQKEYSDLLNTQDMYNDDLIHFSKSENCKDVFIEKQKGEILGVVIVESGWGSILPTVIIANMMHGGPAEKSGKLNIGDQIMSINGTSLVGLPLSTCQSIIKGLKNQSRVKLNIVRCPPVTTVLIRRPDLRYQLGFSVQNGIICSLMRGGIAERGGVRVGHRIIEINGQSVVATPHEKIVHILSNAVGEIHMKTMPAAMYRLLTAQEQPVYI

The variants in the first assay derive from B1. The conditions noted are these: with APBA1, Q02410-2.
On to T27N, for which the “effect of a mutation on the interaction” value is listed as “disrupting interaction”.

Variants of B2 are the subject of the next assay. Particulars: with APBA1, Q02410-2.
Regarding T27N, the “effect of a mutation on the interaction” value is on record as “disrupting interaction”.

Another assay covers variants of B3. Particulars: with apba1_mouse Apba1, B2RUJ5.
Turning to T27N, the “effect of a mutation on the interaction” value was “disrupting interaction”.
